Data on 22 molecules can be found in paper PMC10631449 (Journal of medicinal chemistry, 2023).

Series [1] addresses mouse melanocortin 5 receptor (mouse) (UniProt P41149).
For series [2], the target named is mouse melanocortin 3 receptor (mouse) (UniProt P33033).
Series [3] concerns the target mouse melanocortin 4 receptor (mouse) (UniProt P56450).
Series [4] relates to MC1R. The following applies: MC1R antagonist; cited from earlier work.
Series [5] addresses mMC3R (Mus musculus, UniProt P33033). As to the kind of experiment: AlphaScreen cAMP agonist assay, HEK293 cells stably expressing mMC3R. Format: cell-based. On the technique in general: Bead proximity is the source of the signal in Alpha formats.
The target of series [6] is mouse melanocortin 1 receptor (mouse) (UniProt Q01727).
Chain of mouse melanocortin 1 receptor (mouse) (Q01727 whole entry): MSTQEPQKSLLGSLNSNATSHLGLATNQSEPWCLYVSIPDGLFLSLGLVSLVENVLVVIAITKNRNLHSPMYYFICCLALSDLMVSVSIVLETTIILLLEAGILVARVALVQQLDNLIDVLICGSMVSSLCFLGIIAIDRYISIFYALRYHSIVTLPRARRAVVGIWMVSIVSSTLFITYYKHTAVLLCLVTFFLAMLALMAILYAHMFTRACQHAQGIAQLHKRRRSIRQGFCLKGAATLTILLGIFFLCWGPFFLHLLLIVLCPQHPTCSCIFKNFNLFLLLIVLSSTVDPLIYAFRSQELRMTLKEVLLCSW
For series [7], the target named is hMC1R. The following applies: read-out: antagonist Ki hMC1R; competitive antagonist; cited from earlier work.
Series [8] concerns K5-noggin mice. As to conditions: administered intracutaneously; cited from earlier work.
Series [9] concerns the target mMC1R (Mus musculus, UniProt Q01727). The following applies: cited from earlier work.
For series [10], the target named is mMC5R (Mus musculus, UniProt P41149). The following applies: read-out: antagonist Ki mMC5R; cited from earlier work.
Chain of mMC5R (P41149 whole entry): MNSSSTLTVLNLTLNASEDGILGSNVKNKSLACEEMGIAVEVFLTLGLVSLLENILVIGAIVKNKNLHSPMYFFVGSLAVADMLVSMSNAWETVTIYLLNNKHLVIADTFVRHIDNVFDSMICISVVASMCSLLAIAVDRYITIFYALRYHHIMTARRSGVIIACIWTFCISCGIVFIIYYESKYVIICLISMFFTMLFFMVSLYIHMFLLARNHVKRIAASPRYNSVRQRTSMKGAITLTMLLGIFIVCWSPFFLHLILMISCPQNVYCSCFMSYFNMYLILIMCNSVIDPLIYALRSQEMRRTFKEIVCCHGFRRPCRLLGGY
Series [11] can be described thus: Body weight after intrathecal. Format: in vivo. As to conditions: t = 0, 24 and 48 h; 10 or 15 nmol/mouse IT.

Bridge positions count the residues as written; N and C are the ends. Square brackets hold non-standard residues; d marks the D form. Peptide text beside a SMILES is read from it. dPhe(4-I) = N[C@H](Cc1ccc(I)cc1)C(=O)O; 2Nal = N[C@@H](Cc1ccc2ccccc2c1)C(=O)O; hArg = N=C(N)NCCCC[C@H](N)C(=O)O; Cit = NC(=O)NCCC[C@H](N)C(=O)O; Nle = CCCC[C@H](N)C(=O)O; Orn = NCCC[C@H](N)C(=O)O; Dab = NCC[C@H](N)C(=O)O; Dap = NC[C@H](N)C(=O)O Where only a bound is given, the exact number is not on record here.

Chain of mouse melanocortin 5 receptor (mouse) (P41149 whole entry): as above
Chain of mouse melanocortin 3 receptor (mouse) (P33033 whole entry): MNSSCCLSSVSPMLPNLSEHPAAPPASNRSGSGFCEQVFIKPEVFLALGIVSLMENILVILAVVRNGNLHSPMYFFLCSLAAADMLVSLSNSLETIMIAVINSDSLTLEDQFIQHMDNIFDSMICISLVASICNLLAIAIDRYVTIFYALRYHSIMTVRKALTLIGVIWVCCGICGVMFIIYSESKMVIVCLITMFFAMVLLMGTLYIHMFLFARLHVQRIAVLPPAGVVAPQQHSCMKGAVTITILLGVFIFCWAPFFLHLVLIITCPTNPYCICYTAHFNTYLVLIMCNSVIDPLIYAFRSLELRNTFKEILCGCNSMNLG
Chain of mouse melanocortin 4 receptor (mouse) (P56450 whole entry): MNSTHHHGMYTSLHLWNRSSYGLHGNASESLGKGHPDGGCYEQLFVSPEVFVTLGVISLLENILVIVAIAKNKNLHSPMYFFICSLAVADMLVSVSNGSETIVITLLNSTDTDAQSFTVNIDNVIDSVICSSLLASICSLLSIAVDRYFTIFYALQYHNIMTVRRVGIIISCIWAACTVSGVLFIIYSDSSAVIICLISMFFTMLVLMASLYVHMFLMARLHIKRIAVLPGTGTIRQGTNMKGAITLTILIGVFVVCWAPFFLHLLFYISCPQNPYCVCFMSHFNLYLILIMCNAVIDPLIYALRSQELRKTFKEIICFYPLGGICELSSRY
Chain of mMC1R (Q01727 whole entry): as the sequence (Q01727 whole entry) above
Chain of mMC3R (P33033 whole entry): as the sequence (P33033 whole entry) above

For Ac-[dPhe(4-I)]R[2Nal][Orn]-NH2, the agonist EC50, cAMP AlphaScreen on HEK293 cells expressing the receptor in [1], in series [2] and in series [3] was greater than 100 µM in each case.

Consider Ac-[Nle]DW[dF][Nle]WK-NH2, for which, in series [4], the “pA2 in the frog skin assay” value is listed as 8.4.

Regarding `CC(=O)N[C@H](Cc1ccc(I)cc1)C(=O)N[C@@H](CCCNC(=N)N)C(=O)N[C@@H](Cc1ccc2ccccc2c1)C(=O)N[C@@H](Cc1c[nH]cn1)C(N)=O` [Peptide 12, Ac-DPhe(pI)-Arg-Nal(2’)-His-NH2] (Ac-[dPhe(4-I)]R[2Nal]H-NH2), the “percent maximal stimulatory response (compared to NDP-MSH) observed at 100 μM, mMC3R” value in series [5] stood at 35% @ 100 μM.

For the molecule Ac-[dPhe(4-I)]R[2Nal]R-NH2, the agonist EC50, cAMP AlphaScreen on HEK293 cells expressing the receptor in series [1] was greater than 100 µM.

For the molecule Ac-[dPhe(4-I)]R[2Nal][Cit]-NH2, the agonist EC50, cAMP AlphaScreen on HEK293 cells expressing the receptor in series [1], in [2], in [3] and in series [6] was greater than 100 µM each time.

As to Ac-[dPhe(4-I)]R[2Nal]H-NH2, the agonist EC50, cAMP AlphaScreen on HEK293 cells expressing the receptor in series [1] and in [3] was greater than 100 µM in each case.

Take Ac-[dPhe(4-I)]R[2Nal][dR]-NH2: the agonist EC50, cAMP AlphaScreen on HEK293 cells expressing the receptor in [1], in series [2], in series [3] and in series [6] was greater than 100 µM each time.

Regarding Ac-[dPhe(4-I)]R[2Nal][hArg]-NH2, the agonist EC50, cAMP AlphaScreen on HEK293 cells expressing the receptor in series [1], in [2] and in series [3] was greater than 100 µM in each case.

Consider Ac-[dPhe(4-I)][dK][2Nal]R-NH2, for which the agonist EC50, cAMP AlphaScreen on HEK293 cells expressing the receptor in [1], in [2], in series [3] and in [6] was greater than 100 µM in each case.

With “c[Gly-Cpg-DNal(2’)-Arg-Trp-Glu]-Val-Val-Gly-NH2”, the inhibitory constant (Ki) – broadly, the dissociation constant of the complex between target and ligand, obtained from inhibition or displacement – in [7] is 0.053 µM.

Consider Ac-[dPhe(4-I)][Cit][2Nal]R-NH2, for which the agonist EC50, cAMP AlphaScreen on HEK293 cells expressing the receptor in series [1], in [2] and in [3] was greater than 100 µM throughout.

In the case of Ac-[dPhe(4-I)]R[2Nal]E-NH2, the agonist EC50, cAMP AlphaScreen on HEK293 cells expressing the receptor in series [1], in [2], in [3] and in series [6] was greater than 100 µM in each case.

Ac-[dPhe(4-I)]H[2Nal]R-NH2: the agonist EC50, cAMP AlphaScreen on HEK293 cells expressing the receptor in series [1], in series [2] and in [3] was greater than 100 µM in each case.

On to Ac-[dPhe(4-I)]R[2Nal]K-NH2, for which the agonist EC50, cAMP AlphaScreen on HEK293 cells expressing the receptor in [1], in [2] and in series [3] was greater than 100 µM each time.

Turning to Ac-[dPhe(4-I)]R[2Nal][dK]-NH2, the agonist EC50, cAMP AlphaScreen on HEK293 cells expressing the receptor in series [1], in [2], in series [3] and in series [6] was greater than 100 µM throughout.

On to H-YERFFNAF[Dap]Y-NH2 (lactam 2-9), for which, in series [8], the “coloration of K5-noggin mice” value is “restored wild-type coloration”. In [9], the “pA2 mMC1R” value is 5.92. Besides, in series [9] (read-out: antagonist Ki mMC1R), the Ki was 1.2 µM.

Take Ac-[dPhe(4-I)]R[2Nal][Dap]-NH2: the agonist EC50, cAMP AlphaScreen on HEK293 cells expressing the receptor in series [1], in [2] and in series [3] was greater than 100 µM in each case.

Consider “Ac-Nle-c[Asp-(1-Me)His-DNal(2’)-Arg-DNal(2’)-Lys]-NH2”, for which, in [10], the Ki is 0.063 µM.

As to `CC(=O)N[C@H](Cc1ccc(I)cc1)C(=O)N[C@@H](CCCNC(=N)N)C(=O)N[C@@H](Cc1ccc2ccccc2c1)C(=O)N[C@@H](CCCN)C(N)=O` [Peptide 14, Ac-DPhe(pI)-Arg-Nal(2’)-Orn-NH2] (Ac-[dPhe(4-I)]R[2Nal][Orn]-NH2), the “body weights compared to vehicle” value in series [11] is reported as “not statistically significantly different”.

Regarding Ac-[dPhe(4-I)]K[2Nal]R-NH2, the agonist EC50, cAMP AlphaScreen on HEK293 cells expressing the receptor in series [1], in [2] and in series [3] was greater than 100 µM throughout.

Turning to Ac-[dPhe(4-I)]R[2Nal][Dab]-NH2, the agonist EC50, cAMP AlphaScreen on HEK293 cells expressing the receptor in series [1], in series [2] and in [3] was greater than 100 µM in each case.

With Ac-[dPhe(4-I)]E[2Nal]R-NH2, the agonist EC50, cAMP AlphaScreen on HEK293 cells expressing the receptor in [1], in series [2], in series [3] and in series [6] was greater than 100 µM throughout.
